These results are taken from patent publication US20190248900A1 (Y BIOLOGICS, published 2019).

Positions count from the first letter of the chain named.

Experiment [1] addresses human PD-1 (NM_005018.2) over-expressed on cells (human, UniProt Q15116 25-288). Description: cell-based or functional assay.
In another experiment the target is T1, M1-2.
T1 construct: also called PD1 mutant M1-2
Description: scFv-phage ELISA.

In the next experiment the target is T2, M3.
T2 construct: also called PD1 mutant M3
In words: scFv-phage ELISA. In general terms: In an ELISA, binding on a coated surface is turned into a signal by an enzyme label.

A further experiment concerns the target T3, M2-1.
T3 construct: also called PD1 mutant M2-1
In words: scFv-phage ELISA.

The target of a further experiment is T4, M2-2.
T4 construct: also called PD1 mutant M2-2
In words: scFv-phage ELISA.

The target of a further experiment is T5, M7-1.
T5 construct: also called PD1 mutant M7-1
Description: scFv-phage ELISA.

Another experiment has as its target T6, M11.
T6 construct: also called PD1 mutant M11
Description: scFv-phage ELISA.

The target of another experiment is T7, M5.
T7 construct: also called PD1 mutant M5
In words: scFv-phage ELISA.

The next experiment addresses T8, M5-2.
T8 construct: also called PD1 mutant M5-2
Description: scFv-phage ELISA.

Another experiment has as its target T9, M1.
T9 construct: also called PD1 mutant M1
Description: scFv-phage ELISA.

In the next experiment the target is T10, M4.
T10 construct: also called PD1 mutant M4
In words: scFv-phage ELISA.

In a further experiment the target is T11, M6.
T11 construct: also called PD1 mutant M6
In words: scFv-phage ELISA.

Another experiment concerns the target T12, M7.
T12 construct: also called PD1 mutant M7
In words: scFv-phage ELISA.

For another experiment, the target named is T13, M10.
T13 construct: also called PD1 mutant M10
In words: scFv-phage ELISA.

The target of the next experiment is T14, M8.
T14 construct: also called PD1 mutant M8
Description: scFv-phage ELISA.

For another experiment, the target named is T15, M2.
T15 construct: also called PD1 mutant M2
In words: scFv-phage ELISA.

In the next experiment the target is T16, M1-1.
T16 construct: also called PD1 mutant M1-1
In words: scFv-phage ELISA.

Another experiment addresses T17, M7-2.
T17 construct: also called PD1 mutant M7-2
Description: scFv-phage ELISA.

A further experiment addresses T18, M9.
T18 construct: also called PD1 mutant M9
In words: scFv-phage ELISA.

Another experiment has as its target T19, M14.
T19 construct: also called PD1 mutant M14
Description: scFv-phage ELISA.

Another experiment deals with T20, M5-1.
T20 construct: also called PD1 mutant M5-1
In words: scFv-phage ELISA.

For the next experiment, the target named is T21, M12.
T21 construct: also called PD1 mutant M12
In words: scFv-phage ELISA.

In another experiment the target is T22, M13.
T22 construct: also called PD1 mutant M13
Description: scFv-phage ELISA.

The target of the next experiment is T23, ITGA6-Fc.
T23 construct: Fc fusion
T23 sequence (P23229 whole entry, species assumed, looked up): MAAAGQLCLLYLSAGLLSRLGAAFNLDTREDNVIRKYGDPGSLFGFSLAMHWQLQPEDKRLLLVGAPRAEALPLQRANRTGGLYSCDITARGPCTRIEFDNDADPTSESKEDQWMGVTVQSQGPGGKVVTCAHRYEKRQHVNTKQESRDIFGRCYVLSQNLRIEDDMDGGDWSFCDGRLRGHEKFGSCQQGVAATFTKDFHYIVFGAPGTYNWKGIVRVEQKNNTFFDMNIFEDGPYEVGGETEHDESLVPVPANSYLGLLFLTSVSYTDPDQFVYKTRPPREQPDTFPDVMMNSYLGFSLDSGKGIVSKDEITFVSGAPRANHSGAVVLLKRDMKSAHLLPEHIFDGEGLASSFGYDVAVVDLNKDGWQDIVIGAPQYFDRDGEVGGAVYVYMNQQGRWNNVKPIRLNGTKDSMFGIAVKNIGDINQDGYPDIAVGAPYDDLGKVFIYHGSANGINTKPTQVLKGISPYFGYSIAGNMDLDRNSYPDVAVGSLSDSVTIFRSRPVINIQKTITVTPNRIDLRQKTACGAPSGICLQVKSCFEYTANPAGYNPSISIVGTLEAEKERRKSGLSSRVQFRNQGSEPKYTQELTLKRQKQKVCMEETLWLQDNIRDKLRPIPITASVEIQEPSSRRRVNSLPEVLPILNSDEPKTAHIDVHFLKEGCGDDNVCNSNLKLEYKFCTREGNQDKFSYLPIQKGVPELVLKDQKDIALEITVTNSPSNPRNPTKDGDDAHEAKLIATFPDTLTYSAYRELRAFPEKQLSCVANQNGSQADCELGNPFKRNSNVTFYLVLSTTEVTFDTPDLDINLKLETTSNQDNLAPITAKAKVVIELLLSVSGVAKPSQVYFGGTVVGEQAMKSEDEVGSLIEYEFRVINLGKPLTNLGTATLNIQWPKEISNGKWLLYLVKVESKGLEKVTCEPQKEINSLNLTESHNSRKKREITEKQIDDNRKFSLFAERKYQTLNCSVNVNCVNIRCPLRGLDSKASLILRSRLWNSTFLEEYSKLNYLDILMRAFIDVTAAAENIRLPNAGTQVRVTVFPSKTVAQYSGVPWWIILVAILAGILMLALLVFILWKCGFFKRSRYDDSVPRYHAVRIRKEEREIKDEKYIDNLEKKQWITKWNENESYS
In words: scFv-phage ELISA.

Experiment [2] deals with T24, antigen PD1 (coated, construct not stated) (UniProt Q15116 25-170, limits assumed).
T24 construct: also called PD1 antigen; PDCD1
T24 sequence (Q15116 25-170 limits assumed): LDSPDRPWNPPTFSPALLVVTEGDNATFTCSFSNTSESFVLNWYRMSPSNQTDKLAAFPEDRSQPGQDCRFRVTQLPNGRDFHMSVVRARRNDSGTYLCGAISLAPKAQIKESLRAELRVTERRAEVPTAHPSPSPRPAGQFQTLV
In words: scFv-phage ELISA.

Chain of human PD-1 (NM_005018.2) over-expressed on cells (Q15116 25-288): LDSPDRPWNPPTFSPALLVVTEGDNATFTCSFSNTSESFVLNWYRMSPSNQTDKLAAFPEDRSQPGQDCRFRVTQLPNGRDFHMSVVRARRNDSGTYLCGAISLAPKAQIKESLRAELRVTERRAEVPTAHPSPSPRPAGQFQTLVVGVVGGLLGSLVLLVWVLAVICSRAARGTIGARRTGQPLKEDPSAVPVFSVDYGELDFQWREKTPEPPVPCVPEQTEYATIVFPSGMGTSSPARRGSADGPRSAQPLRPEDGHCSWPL

B1: PD1-45D6(A/4D4) (antibody, V domains shown)
VH: QVQLVESGGGVVQPGRSLRLSCAASGFTFSSYAMHWVRQAPGKGLEWVAVISYDGNDKYYADSVKGRFTISRDNSKNTLYLQMNSLRAEDTAVYYCVPTTFEYWGQGTLVTVSS
VL: DIVMTQTPLSLPVTPGEPASISCRSSQSLLDSEDGNTYLDWYLQKPGQSPQLLIYTLSHRASGVPDRFSGSGSGTEFNLRISRVEAEDVGIYYCMQRVEFPFTFGQGTKVDIK
B1: the “EC50 [nM], PD1/PD-L1 blockade bioassay” value in [1] is 1.74 nM.

B2: PD1-49A2(A/1H4) (antibody, V domains shown)
VH: B1 VH with S30P, S31I, N56A, D57H, V97T, P98T, E102D, Y103S
VL: B1 VL with T7S, P18A, E76D, N78T, R80K, V89S, F102Y, V110L
B2: the “EC50 [nM], PD1/PD-L1 blockade bioassay” value in [1] is 0.84 nM.

B3: PD1-74A01 (antibody, V domains shown)
VH: B1 VH with N56S, D57N, A88S, T108S, L109Q
VL: DIVMTQTPLSLPVTPGEPASISCRSSQSLLDRGGGHTYLDWYLQKPGQSPQLLIYTLSHRASGVPDRFSGSGSGTDFTLKISRVEAEDVGIYYCMQRKEFPLTFGPGTKLEIK
For B3, the “EC50 [nM], PD1/PD-L1 blockade bioassay” value in experiment [1] turned out to be 1.01 nM.

B4: PD1-74H12 (antibody, V domains shown)
VH: B1 VH with N56S, D57N, T78M, Q82E, T108S, L109Q
VL: DIVMTQTPLSLSVTPGEPASISCRSSQSLLDSDDGNTYLDWYLQKPGQSPQLLIYTLSHRASGVPDRFSGRGSHTDFTLTISSVEAEDVGVYYCMQRIHFPLTFGQGTRLEIK
In the case of B4, the “EC50 [nM], PD1/PD-L1 blockade bioassay” value in experiment [1] came to 0.98 nM.

B5: PD1-49A2(A/1F12) (antibody, V domains shown)
VH: B1 VH with S30R, S31N, N56Q, D57H, V97T, P98T, E102D, Y103S, G105S
VL: B3 VL with L9H, R32S, G33E, G34D, H36N, S62L, V89S, K98I, L102Y, P106Q
Turning to B5, the “EC50 [nM], PD1/PD-L1 blockade bioassay” value in experiment [1] was determined as 1.03 nM.

B6: PD1-49A2(A/2A11) (antibody, V domains shown)
VH: B1 VH with S30R, N56Q, V97T, P98T, E102D, Y103S
VL: DIVMTQTPLSLPVTPGEPASISCRSSQSLFDSDDGNTYLDWYLQKPGQSPRLLIYTLSHRALGVPDRFSGSGSGTDFTLKISRVAAEDVGLYYCLQRMGFPYTFGQGTKLEIK
As to B6, the “EC50 [nM], PD1/PD-L1 blockade bioassay” value in experiment [1] was 0.79 nM.

B7: PD1-45D6(A/4H6) (antibody, V domains shown)
VH: B1 VH
VL: B6 VL with R51Q, L62S, A85E, L95M, M98V, G99E, Y102F
For the molecule B7, in experiment [1], the “EC50 [nM], PD1/PD-L1 blockade bioassay” value was 1.19 nM.

B8: PD1-45D6(A/5H9) (antibody, V domains shown)
VH: B1 VH with S30W, S31T
VL: B1 VL with E33D, P65S, E76D, N78T, R80E, I91V, V98R, E99D, D111E
As for B8, the “EC50 [nM], PD1/PD-L1 blockade bioassay” value in [1] came out at 2 nM.

B9: PD1-49A2(A/2B10) (antibody, V domains shown)
VH: B1 VH with S30L, S31V, N56S, D57H, V97T, P98T, E102D, Y103S
VL: B1 VL with E33D, E76D, N78T, R80K, E85A, I91L, V110L
Turning to B9, the “EC50 [nM], PD1/PD-L1 blockade bioassay” value in [1] was 0.65 nM.

B10: PD1-45D6(A/5B12) (antibody, V domains shown)
VH: B1 VH with S31V
VL: B1 VL with P18A, E76D, N78T, R80K, D111E
For B10, in experiment [1], the “EC50 [nM], PD1/PD-L1 blockade bioassay” value amounted to 0.8 nM.

B11: PD1-45D6(A/5A6) (antibody, V domains shown)
VH: B1 VH with S30R, S31L, Y53H
VL: B1 VL with E76D, N78T, R80K, I91V, V98I, E99D, F102Y, V110L
On to B11, for which the “EC50 [nM], PD1/PD-L1 blockade bioassay” value in experiment [1] turned out to be 0.92 nM.

B12: PD1-45D6(A/5C8) (antibody, V domains shown)
VH: B1 VH with S30M, S31R
VL: B1 VL with T7S, E76D, N78T, R80K, I91V, V110L
For the molecule B12, the “EC50 [nM], PD1/PD-L1 blockade bioassay” value in [1] came out at 1.44 nM.

B13: PD1-29H3 (antibody, V domains shown)
VH: QMQLVESGGNLVQPGRSLRLSCAASGFTFDDYGMHWVRQAPGKGLEWVSSISWNSGTIGYADSVKGRFTISRDNAKNSLYLQMNSLRSEDTAVYYCARLLHQMNEHEFMDVWGQGTTVTVSS
VL: QLVLTQPSSMSEAPGQRVTISCSGGTSNIGTNAVNWYQQPPGKAPTLLIYYDDRLTSGVSDRFSGSKSGTSASLAISRLQSEDEADYYCAAWDDSLNGWVFGGGTKLTVL
notes: scFv-phage in the screening ELISA; later whole IgG
With B13, the OD490 is 0.6 with M1-2; 2.3 with M3; 2.8 with M2-1; 3.2 in the experiment with M2-2; 1.5 in the experiment with M7-1; 1 with M11. Besides, the OD490 with M5 came to 2; in the experiment with M5-2 it was 3.7; with M1 it was 1.5; with M4, 3.3; with M6 it was 3.5; with M7, 1.4. The OD490 was found to be 3 with M10; 2.2 with M8; 0.7 with M2; 3.2 in the experiment with M1-1; 3.1 with M7-2; 3.4 with M9. Also, the OD490 with M14 turned out to be 3.5; in the experiment with M5-1 it was 2; with M12 it was 3; in the experiment with M13, 3.5; with ITGA6-Fc it was 0.3; in [2], 3.6.

B14: PD1-51D9 (antibody, V domains shown)
VH: QVQLVESGAEVKKPGASVKLSCKASGYTFSSYWMHWVRQAPGQRLEWMGEINPGNGHTNYNEKFKSRVTITVDKSASTAYMELSSLRSEDTAVYYCAREGDGSYWGYFDSWGQGTPITVSS
VL: DIVMTQTPLSLPVTPGEPASISCRSSQSLLHSNGNNYLDWYLQKPGQSPQLLIYLGSYRASGVPDRFSGSGSGTDFTLKISRVEAEDVGLYYCMQGLQIPSTFGPGTKVDIK
notes: scFv-phage in the screening ELISA; whole IgG in the other assays
Regarding B14, the OD490 turned out to be 0.4 with M1-2; 0.3 in the experiment with M3; 0.4 in the experiment with M2-1; 0.6 in the experiment with M2-2; 0.1 with M7-1; 0.1 with M11. Moreover, the OD490 in the experiment with M5 worked out at 0.1; in the experiment with M5-2, 0.6; with M1, 0.2; with M4, 1.1; with M6, 0.3; in the experiment with M7, 0.1. The OD490 in the experiment with M10 came to 0.1; with M8, 0.1; with M2 it was 0.1; in the experiment with M1-1, 0.2; in the experiment with M7-2, 0.3; in the experiment with M9, 0.3. Also, the OD490 in the experiment with M14 came to 0.8; with M5-1, 0.1; with M12, 0.3; with M13, 0.7; with ITGA6-Fc it was 0.1.
